Measurements: PMC5838018, “The Conserved ESCRT-III Machinery Participates in the Phagocytosis of Entamoeba histolytica” (Frontiers in Cellular and Infection Microbiology, 2018)

T1: EhVps32 (Entamoeba histolytica (endogenous in …, UniProt C4M1A5 1-204))
T1 construct: EhVps32, Entamoeba histolytica ESCRT-III protein (ortholog of yeast Snf7/Vps32 and human CHMP4), endogenous in trophozoites; Precipitated and detected with the mouse polyclonal α-rEhVps32 antibody; also called EhVps32 protein; source: endogenous, E. histolytica trophozoites (lysate for immunoprecipitation; fixed, permeabilized cells for flow cytometry)
T1 sequence: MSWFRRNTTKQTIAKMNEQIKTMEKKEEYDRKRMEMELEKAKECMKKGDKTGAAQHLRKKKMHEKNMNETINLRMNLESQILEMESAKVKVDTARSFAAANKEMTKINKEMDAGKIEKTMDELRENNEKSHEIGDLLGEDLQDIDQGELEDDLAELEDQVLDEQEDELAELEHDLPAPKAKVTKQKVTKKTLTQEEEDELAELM

B1: EhVps24 (natural protein)
chain: MGNLNSQTVDNSFQQKQFELKVNRDNLSKREKEYQNNIEKLNKEARKYCRKGDKENAKRQIKLRTLYETNLKEIRCYLDQTETILIQLEASKRNYDVAKLMDESNKEIKKILNKIPKNFIEEIINTKKENSDKLKEIDSLYEQLNDIDNENQIEQELNKLALEVMSEKEGGIEAVKNEVIAESLPEVNSQSDMLISKQNIVIETF
notes: EhVps24, Entamoeba histolytica ESCRT-III protein, endogenous in trophozoites; also called EhVps24 protein; source: endogenous, E. histolytica trophozoites (lysate for immunoprecipitation; fixed, permeabilized cells for flow cytometry)
B2: EhVps2 (natural protein)
chain: MSRLFHKKTPQEIVREQKLNISKSIREITRESKRLEREEVRLTNEIRKMARLGRTNTVKVMAADLVKTKKQIDKLQVVIAQLNSTKMKLTEMSSMVAVTEAMNGVTNAMRKVNEATKLPAMQKVMNDFEKQNAELGIKNTMVSDMVNEGYEGDDIEEETELEVDKVLTEIGLDVENGLKPVPETRQRNTRLKERRQVQMEGGVKTRNEGNEQPEDLDTPGSRVPKAFNEGEDDEDEDDIVSRIANL
notes: EhVps2, Entamoeba histolytica ESCRT-III protein, endogenous in trophozoites; also called EhVps2 protein; source: endogenous, E. histolytica trophozoites (lysate for immunoprecipitation; fixed, permeabilized cells for flow cytometry)
B3: EhVps20 (natural protein)
chain: MLNRFIGKNEEPSIDETHAILESRVTDLDQKIVDLDRQIRQNIEMSHKTTGAESQRYKQKALMLLKQKKQHEQHRDITERHQMNLENVQFQVDQMKDYKKVYDAMAASNRQMKLISRQFDINSIEDVQDSMMNFAEDQQEFGDILSQDITNMDLNELDDELAELGDSMFEGDIQIPESDGFGSVPITNEPFRQKEESQPDDKKFAI
notes: EhVps20, Entamoeba histolytica ESCRT-III protein, predicted 206 amino acids, endogenous in trophozoites; also called EhVps20 protein; source: endogenous, E. histolytica trophozoites (lysate for immunoprecipitation; fixed, permeabilized cells for flow cytometry)

Columns and labels:
EhVps32 = target: T1, EhVps32; assay: flow cytometry on cells; PFA-fixed, Triton X-100 permeabilized trophozoites after 0, 5 and 30 min of erythrophagocytosis, stained with couples of primary antibodies and secondary antibodies with distinct fluorochromes; percent association of each couple; settings: partners not purified
EhVps24 = target: B1; assay: as above; settings: partners not purified

B1
percent interaction, 30 min of erythrophagocytosis (EhVps32): ~47%

B2
percent interaction, 30 min of erythrophagocytosis (EhVps24): 10%

B3
percent interaction, 30 min of erythrophagocytosis (EhVps32): ~47%
